Assay results published in publication doi:10.1101/2024.05.21.594841 (bioRxiv, 2024).

Experiments:
Assay in all cases: split reporter
Kre5p = target: T1, Kre5p (S. cerevisiae, UniProt P22023 18-1365)
T1 sequence: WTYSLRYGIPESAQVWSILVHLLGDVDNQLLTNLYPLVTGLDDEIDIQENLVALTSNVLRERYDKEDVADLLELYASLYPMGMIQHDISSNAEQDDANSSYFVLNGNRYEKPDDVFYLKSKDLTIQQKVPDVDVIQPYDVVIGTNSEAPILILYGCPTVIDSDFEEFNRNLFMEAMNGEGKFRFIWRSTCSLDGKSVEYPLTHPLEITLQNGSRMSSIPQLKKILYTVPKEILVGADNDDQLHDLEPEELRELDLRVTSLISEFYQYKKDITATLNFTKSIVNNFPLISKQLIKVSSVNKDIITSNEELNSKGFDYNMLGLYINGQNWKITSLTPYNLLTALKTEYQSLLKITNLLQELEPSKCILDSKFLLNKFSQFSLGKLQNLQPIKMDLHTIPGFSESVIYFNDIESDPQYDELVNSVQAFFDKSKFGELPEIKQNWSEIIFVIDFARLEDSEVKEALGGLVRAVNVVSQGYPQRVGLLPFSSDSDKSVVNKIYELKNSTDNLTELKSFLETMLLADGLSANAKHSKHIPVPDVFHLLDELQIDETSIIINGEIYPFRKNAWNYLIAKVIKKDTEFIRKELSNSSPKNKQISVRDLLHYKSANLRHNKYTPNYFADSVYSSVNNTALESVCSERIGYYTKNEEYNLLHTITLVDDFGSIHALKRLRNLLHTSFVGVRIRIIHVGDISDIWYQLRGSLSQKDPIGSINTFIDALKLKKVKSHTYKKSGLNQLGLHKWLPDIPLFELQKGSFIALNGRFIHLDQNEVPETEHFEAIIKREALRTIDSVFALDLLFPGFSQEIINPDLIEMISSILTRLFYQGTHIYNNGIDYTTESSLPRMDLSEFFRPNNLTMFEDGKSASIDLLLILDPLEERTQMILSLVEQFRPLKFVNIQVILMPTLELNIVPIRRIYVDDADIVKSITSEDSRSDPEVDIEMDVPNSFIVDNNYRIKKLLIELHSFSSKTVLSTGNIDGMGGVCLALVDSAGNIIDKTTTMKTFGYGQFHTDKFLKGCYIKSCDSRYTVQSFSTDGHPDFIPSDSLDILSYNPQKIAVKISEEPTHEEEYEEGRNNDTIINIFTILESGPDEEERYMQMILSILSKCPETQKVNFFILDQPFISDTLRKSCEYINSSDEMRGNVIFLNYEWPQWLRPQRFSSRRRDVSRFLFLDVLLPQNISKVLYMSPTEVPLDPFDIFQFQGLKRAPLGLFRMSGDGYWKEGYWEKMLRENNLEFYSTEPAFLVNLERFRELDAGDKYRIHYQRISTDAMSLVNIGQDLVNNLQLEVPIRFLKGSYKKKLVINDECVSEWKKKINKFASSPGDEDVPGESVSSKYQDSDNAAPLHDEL

Pdi1p = target: T2, Pdi1p (S. cerevisiae, UniProt P17967 29-522)
T2 sequence: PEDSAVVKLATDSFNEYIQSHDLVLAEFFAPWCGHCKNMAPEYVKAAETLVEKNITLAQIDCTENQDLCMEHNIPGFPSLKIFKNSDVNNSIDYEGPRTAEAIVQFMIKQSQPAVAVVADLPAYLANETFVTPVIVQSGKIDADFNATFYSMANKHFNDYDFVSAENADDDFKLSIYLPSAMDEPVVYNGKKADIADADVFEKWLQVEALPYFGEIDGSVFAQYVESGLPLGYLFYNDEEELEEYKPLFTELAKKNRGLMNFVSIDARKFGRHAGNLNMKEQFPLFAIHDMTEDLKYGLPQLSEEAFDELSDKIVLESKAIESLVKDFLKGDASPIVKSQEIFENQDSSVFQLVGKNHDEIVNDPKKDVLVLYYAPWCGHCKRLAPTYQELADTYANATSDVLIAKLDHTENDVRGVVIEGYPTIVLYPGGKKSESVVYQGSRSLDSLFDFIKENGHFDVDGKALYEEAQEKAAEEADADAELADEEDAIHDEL

Cpr5p = Cpr5p (S. cerevisiae, UniProt P35176 23-225)
Cpr5p, sequence (P35176 23-225): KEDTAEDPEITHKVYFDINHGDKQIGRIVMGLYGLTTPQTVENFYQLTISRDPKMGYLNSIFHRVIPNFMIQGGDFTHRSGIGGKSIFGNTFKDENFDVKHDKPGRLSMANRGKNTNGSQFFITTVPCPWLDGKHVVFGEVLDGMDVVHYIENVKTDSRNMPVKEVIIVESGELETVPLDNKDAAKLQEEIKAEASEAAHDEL

Scj1p = target: T3, Scj1p (S. cerevisiae, UniProt P25303 22-377)
T3 sequence: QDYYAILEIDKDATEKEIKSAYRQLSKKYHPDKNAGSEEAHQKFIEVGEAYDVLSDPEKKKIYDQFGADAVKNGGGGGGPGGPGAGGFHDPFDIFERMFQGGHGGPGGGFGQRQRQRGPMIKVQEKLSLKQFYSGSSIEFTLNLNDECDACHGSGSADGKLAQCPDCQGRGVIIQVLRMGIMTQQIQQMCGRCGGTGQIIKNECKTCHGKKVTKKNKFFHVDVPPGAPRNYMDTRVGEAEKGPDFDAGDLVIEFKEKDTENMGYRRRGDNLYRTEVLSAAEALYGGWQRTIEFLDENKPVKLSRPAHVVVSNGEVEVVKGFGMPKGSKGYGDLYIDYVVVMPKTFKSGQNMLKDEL

normalized interacting score (Kre5p): > 40%
normalized interacting score (Pdi1p): > 40%
normalized interacting score (Cpr5p): > 40%
normalized interacting score (Scj1p): > 40%
B1: Lhs1p (natural protein)
chain: AVLGVDYGQQNIKAIVVSPQAPLELVLTPEAKRKEISGLSIKRLPGYGKDDPNGIERIYGSAVGSLATRFPQNTLLHLKPLLGKSLEDETTVTLYSKQHPGLEMVSTNRSTIAFLVDNVEYPLEELVAMNVQEIANRANSLLKDRDARTEDFVNKMSFTIPDFFDQHQRKALLDASSITTGIEETYLVSEGMSVAVNFVLKQRQFPPGEQQHYIVYDMGSGSIKASMFSILQPEDTTQPVTIEFEGYGYNPHLGGAKFTMDIGSLIENKFLETHPAIRTDELHANPKALAKINQAAEKAKLILSANSEASINIESLINDIDFRTSITRQEFEEFIADSLLDIVKPINDAVTKQFGGYGTNLPEINGVILAGGSSRIPIVQDQLIKLVSEEKVLRNVNADESAVNGVVMRGIKLSNSFKTKPLNVVDRSVNTYSFKLSNESELYDVFTRGSAYPNKTSILTNTTDSIPNNFTIDLFENGKLFETITVNSGAIKNSYSSDKCSSGVAYNITFDLSSDRLFSIQEVNCICQSENDIGNSKQIKNKGSRLAFTSEDVEIKRLSPSERSRLHEHIKLLDKQDKERFQFQENLNVLESNLYDARNLLMDDEVMQNGPKSQVEELSEMVKVYLDWLEDASFDTDPEDIVSRIREIGILKKKIELYMDSAKEPLNSQQFKGMLEEGHKLLQAIETHKNTVEEFLSQFETEFADTIDNVREEFKKIKQPAYVSKALSTWEETLTSFKNSISEIEKFLAKNLFGEDLREHLFEIKLQFDMYRTKLEEKLRLIKSGDESRLNEIKKLHLRNFRLQKRKEEKLKRKLEQEKSRNNNETESTVINSADDKTTIVNDKTTESNPSSEEDILHDEL
